The source of these data is publication PMC2173104.

What all share (assay): two-hybrid
The target of experiment [1] is Gal4 binding domain Iqg1p fusion protein, Iqg1p (1–1495) (S. cerevisiae) (UniProt Q12280).
For experiment [2], the target named is Gal4 binding domain fusion of Iqg1p (1–823) (S. cerevisiae) (UniProt Q12280).
Experiment [3] addresses Gal4 binding domain fusion of Iqg1p (295–823) (S. cerevisiae) (UniProt Q12280).

As for “Cdc12p in pGAD-C2 (from UniProt P32468 1-407) (natural protein)”, the beta-galactosidase activity in experiment [1] turned out to be 23 Miller units.
In the case of “Myosin light chain protein Mlc1p in pGAD-C2 (from UniProt P53141 1-149) (natural protein)”, the beta-galactosidase activity was 98.7 Miller units in experiment [1], 107 Miller units in experiment [2] and 408 Miller units in experiment [3].
